Test results taken from patent US20200087347 (published 2020).
Where no end group is shown, it is not given here. Side-chain parts run from the residue outwards. [ ]: non-standard residue; d: D form. The star is where a group is joined. BODIPY(FL) = CC1=CC(C)=[N+]2C1=Cc1ccc(CCC(=O)*)n1[B-]2(F)F; NMeK = CN[C@@H](CCCCN)C(=O)O

Columns and labels:
Assay in all cases: competition
integrin αvβ8 = target: T1, integrin αvβ8 (human, UniProt P06756)
T1 chain 1: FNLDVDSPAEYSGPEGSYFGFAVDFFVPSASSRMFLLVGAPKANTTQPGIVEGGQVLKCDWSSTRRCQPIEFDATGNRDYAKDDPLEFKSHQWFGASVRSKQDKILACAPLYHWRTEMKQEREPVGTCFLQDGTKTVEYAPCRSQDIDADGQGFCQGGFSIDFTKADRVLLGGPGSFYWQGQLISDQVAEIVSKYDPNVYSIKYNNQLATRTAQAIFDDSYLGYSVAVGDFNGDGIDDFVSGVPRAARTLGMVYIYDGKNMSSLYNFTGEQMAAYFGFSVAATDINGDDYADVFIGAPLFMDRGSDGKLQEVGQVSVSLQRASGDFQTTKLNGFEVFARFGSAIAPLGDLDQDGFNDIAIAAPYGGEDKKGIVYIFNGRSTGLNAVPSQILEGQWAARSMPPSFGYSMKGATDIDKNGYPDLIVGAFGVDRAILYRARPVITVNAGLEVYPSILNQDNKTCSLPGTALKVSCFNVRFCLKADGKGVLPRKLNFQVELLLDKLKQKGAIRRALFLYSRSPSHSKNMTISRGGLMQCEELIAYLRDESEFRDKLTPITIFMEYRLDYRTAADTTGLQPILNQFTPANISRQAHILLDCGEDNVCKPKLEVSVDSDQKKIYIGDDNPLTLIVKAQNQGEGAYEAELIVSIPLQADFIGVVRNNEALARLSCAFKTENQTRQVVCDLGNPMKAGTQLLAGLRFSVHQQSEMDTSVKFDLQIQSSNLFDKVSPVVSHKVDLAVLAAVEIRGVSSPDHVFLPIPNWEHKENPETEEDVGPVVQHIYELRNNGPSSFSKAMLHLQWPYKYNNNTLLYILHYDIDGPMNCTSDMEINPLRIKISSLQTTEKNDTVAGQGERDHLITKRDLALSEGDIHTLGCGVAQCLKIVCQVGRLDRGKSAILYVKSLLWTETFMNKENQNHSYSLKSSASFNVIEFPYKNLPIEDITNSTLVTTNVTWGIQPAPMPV
T1 chain 2: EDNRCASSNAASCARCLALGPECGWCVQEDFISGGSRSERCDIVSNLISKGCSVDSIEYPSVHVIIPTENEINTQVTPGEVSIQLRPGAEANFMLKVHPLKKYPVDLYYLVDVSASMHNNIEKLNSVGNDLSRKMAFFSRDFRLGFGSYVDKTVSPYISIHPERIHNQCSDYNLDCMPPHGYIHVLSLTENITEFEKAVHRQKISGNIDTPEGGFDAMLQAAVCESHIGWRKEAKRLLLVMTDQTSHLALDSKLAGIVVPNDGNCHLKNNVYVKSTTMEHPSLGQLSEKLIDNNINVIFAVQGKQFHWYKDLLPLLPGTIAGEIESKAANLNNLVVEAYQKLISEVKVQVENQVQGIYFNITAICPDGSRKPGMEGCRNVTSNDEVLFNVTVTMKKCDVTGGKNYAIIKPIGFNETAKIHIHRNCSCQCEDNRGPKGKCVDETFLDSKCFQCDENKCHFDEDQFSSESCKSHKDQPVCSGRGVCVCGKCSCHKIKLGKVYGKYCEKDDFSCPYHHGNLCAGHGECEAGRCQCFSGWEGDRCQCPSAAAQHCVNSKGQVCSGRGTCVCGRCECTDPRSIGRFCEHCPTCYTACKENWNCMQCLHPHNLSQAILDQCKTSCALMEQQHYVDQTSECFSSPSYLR

integrin αvβ6 = target: T2, integrin αvβ6 (human, UniProt P06756)
T2 chain 1: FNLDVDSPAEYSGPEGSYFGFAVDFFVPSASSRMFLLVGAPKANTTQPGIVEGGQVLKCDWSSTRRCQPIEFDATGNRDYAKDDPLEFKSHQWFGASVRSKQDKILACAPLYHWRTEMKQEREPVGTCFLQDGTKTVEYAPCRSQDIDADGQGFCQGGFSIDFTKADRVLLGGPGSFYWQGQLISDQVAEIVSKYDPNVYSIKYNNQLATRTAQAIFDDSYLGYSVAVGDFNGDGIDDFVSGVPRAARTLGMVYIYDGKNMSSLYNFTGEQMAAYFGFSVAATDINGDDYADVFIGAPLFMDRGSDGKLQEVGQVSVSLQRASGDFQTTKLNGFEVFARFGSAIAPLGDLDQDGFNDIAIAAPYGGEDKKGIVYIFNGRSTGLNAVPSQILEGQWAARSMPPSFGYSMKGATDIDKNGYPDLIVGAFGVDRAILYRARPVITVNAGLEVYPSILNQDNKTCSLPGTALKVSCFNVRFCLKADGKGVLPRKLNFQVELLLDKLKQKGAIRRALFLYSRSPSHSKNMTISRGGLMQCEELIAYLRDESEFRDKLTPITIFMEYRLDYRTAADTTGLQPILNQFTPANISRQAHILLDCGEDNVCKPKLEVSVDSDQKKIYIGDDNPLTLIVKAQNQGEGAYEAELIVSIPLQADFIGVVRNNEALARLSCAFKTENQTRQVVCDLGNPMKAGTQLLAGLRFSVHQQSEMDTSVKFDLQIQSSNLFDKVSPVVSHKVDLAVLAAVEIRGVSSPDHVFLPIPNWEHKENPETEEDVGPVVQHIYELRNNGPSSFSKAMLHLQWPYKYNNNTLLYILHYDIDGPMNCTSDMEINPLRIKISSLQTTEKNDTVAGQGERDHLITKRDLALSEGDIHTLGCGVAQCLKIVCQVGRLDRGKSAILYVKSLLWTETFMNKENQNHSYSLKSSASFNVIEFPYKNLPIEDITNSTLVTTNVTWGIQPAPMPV
T2 chain 2: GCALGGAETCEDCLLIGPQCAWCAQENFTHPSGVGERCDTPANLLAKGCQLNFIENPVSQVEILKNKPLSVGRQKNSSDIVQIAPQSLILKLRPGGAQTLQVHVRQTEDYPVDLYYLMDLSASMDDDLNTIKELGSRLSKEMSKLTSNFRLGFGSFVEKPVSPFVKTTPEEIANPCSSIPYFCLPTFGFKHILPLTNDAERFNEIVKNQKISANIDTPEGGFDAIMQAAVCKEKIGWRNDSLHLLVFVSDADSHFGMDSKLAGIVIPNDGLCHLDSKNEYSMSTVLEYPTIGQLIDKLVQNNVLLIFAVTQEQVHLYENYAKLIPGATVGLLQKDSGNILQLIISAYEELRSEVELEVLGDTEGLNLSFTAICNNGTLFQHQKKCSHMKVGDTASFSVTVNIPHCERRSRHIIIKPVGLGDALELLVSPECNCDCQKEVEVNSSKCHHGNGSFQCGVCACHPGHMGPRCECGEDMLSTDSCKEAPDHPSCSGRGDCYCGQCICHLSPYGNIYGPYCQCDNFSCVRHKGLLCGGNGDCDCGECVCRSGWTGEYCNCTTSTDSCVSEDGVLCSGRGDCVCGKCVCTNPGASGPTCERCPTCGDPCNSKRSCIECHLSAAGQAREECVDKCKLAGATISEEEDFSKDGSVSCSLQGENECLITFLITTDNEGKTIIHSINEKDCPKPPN

integrin αvβ5 = target: T3, integrin αvβ5 (human, UniProt P06756)
T3 chain 1: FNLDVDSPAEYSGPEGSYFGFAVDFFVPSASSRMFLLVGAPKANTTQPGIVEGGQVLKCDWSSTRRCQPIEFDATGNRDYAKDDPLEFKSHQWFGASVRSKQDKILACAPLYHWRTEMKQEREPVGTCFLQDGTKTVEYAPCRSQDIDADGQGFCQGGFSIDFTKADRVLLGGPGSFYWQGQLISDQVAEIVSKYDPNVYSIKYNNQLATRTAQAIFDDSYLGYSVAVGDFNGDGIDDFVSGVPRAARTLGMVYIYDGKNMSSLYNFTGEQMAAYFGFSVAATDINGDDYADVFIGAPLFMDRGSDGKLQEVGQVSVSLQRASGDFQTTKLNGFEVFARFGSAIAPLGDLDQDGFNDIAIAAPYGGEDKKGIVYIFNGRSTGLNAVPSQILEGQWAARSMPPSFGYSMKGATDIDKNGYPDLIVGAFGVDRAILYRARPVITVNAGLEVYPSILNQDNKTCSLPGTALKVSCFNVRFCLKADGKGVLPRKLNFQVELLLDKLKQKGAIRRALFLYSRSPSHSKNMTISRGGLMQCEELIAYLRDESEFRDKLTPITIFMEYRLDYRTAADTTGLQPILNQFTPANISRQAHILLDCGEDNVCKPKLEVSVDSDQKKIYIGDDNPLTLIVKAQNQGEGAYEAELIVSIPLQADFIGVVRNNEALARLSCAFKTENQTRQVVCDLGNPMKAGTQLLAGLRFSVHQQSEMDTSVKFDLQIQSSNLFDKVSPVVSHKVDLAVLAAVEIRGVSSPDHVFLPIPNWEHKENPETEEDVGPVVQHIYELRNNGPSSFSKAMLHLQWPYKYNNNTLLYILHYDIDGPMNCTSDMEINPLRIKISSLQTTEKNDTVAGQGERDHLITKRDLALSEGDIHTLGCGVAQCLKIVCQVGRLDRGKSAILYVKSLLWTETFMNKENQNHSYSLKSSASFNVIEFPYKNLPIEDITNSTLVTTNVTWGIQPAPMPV
T3 chain 2: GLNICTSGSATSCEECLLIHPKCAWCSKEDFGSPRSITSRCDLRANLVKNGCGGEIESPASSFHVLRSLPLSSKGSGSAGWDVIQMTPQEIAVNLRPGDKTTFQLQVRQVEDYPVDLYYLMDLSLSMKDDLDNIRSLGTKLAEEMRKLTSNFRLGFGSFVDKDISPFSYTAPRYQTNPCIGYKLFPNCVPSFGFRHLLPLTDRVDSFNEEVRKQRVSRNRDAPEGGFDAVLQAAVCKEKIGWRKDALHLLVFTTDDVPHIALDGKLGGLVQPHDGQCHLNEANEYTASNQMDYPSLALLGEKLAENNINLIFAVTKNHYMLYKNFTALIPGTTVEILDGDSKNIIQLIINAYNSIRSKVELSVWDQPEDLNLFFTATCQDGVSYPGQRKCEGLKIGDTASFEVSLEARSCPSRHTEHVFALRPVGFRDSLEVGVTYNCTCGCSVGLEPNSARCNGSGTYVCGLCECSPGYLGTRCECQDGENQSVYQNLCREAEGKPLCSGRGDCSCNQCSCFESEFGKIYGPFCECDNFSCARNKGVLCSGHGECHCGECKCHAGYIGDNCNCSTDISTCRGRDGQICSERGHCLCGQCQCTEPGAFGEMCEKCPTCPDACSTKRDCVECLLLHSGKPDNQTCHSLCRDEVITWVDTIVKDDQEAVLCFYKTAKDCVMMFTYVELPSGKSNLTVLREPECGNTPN

integrin α5β1 = integrin α5β1 (human, UniProt P08648)
integrin α5β1, sequence (P08648 42-1049, chain 1 of 2): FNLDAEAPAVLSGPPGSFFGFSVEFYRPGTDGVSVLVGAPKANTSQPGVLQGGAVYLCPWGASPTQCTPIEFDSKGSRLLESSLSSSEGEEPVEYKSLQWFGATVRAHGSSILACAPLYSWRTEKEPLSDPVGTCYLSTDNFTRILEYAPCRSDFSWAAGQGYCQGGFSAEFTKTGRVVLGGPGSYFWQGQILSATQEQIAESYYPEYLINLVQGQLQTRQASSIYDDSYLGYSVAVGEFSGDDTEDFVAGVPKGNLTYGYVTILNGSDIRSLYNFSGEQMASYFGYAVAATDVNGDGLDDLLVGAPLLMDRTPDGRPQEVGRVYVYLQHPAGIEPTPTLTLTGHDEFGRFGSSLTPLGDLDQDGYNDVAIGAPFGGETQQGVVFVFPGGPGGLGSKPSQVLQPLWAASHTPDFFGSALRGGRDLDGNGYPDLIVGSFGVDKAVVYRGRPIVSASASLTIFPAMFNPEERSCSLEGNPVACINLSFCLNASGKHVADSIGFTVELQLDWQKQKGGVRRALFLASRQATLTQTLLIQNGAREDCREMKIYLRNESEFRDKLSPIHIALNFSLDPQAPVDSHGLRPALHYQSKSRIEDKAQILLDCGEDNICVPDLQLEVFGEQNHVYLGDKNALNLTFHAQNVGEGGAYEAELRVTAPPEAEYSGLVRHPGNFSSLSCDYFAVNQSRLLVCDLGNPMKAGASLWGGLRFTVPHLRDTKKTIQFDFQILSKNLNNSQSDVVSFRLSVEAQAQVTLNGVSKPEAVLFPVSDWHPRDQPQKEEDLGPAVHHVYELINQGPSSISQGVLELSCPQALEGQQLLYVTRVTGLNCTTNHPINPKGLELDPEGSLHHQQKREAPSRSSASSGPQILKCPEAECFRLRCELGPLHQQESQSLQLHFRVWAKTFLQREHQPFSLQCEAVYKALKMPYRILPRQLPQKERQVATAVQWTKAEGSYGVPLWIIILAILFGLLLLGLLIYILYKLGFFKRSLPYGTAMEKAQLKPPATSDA
integrin α5β1, sequence (chain, as listed by the source, chain 2 of 2): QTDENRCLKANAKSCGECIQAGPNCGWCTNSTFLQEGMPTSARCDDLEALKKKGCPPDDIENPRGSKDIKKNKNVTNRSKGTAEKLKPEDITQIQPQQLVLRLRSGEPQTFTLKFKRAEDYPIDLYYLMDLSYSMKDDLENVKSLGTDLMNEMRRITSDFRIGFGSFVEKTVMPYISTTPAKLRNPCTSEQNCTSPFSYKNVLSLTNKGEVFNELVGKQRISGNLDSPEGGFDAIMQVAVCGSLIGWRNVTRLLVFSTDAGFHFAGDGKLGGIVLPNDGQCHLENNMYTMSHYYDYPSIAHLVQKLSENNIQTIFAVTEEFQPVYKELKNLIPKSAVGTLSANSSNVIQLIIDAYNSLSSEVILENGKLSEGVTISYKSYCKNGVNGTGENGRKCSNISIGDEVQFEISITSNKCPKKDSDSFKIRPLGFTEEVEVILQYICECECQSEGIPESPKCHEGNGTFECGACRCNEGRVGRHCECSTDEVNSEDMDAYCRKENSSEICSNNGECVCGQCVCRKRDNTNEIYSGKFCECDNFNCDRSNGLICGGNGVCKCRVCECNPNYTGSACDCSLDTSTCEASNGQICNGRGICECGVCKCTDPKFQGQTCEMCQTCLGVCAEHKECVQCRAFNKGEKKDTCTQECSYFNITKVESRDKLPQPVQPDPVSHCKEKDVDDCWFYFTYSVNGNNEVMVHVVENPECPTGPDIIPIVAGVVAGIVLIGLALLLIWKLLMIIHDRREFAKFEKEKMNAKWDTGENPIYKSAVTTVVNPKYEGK

integrin αvβ3 = target: T4, integrin αvβ3 (human, UniProt P06756)
T4 chain 1: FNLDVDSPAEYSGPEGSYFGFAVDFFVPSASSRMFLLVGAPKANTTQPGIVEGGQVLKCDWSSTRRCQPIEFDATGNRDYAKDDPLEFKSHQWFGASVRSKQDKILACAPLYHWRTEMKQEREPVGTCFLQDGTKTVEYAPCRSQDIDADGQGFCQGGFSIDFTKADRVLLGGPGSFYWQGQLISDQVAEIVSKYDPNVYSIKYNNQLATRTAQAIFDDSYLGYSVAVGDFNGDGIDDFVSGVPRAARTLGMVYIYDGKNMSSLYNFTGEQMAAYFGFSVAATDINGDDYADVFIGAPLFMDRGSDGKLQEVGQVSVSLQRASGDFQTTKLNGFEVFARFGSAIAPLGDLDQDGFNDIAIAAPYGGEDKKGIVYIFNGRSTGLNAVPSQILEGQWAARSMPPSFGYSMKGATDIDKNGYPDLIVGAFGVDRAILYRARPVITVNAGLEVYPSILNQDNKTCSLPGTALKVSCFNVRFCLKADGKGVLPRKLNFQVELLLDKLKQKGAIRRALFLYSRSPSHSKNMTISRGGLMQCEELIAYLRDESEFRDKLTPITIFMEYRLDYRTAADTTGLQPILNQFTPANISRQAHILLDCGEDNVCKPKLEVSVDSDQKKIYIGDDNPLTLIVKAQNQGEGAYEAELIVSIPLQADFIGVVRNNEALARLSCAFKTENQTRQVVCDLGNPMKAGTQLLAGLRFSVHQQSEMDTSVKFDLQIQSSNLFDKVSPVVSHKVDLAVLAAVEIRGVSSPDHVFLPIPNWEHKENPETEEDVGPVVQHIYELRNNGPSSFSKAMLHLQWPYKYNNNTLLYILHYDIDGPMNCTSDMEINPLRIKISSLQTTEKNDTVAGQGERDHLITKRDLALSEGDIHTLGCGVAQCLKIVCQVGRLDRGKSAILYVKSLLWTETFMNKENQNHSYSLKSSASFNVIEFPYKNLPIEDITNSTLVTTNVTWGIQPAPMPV
T4 chain 2: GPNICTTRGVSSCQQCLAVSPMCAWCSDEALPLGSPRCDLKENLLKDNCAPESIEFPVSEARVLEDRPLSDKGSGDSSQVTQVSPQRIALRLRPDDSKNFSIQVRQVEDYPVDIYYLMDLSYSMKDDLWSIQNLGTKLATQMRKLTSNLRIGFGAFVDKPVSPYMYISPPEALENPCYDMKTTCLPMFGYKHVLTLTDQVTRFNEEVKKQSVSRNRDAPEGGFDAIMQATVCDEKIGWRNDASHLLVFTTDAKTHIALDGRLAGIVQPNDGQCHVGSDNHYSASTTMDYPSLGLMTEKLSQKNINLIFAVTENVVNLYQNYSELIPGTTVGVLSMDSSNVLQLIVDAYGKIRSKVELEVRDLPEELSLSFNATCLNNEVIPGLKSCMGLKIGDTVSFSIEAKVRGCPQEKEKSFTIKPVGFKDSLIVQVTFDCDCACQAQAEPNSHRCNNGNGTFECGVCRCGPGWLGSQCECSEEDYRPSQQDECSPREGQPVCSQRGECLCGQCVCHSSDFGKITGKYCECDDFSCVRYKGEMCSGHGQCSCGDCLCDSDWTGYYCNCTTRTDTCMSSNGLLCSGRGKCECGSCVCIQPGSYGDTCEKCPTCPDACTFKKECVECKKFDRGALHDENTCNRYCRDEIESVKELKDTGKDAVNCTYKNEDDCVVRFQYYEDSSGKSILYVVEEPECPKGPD

- IC50 (integrin αvβ8): 2.07 nM
- IC50 (integrin αvβ6): 247 nM
- IC50 (integrin αvβ5): > 10 µM
- IC50 (integrin α5β1): 979 nM
- IC50 (integrin αvβ3): 585 nM
Binder: RGDL[dP][NMeK]([Gly-Pro-Pro-Pro-Gly-BODIPY(FL)])GL (not fully specified (bridges); also: cyclic, closure not given here) [Compound 9e (9-G(P)3G-BDPFL)]
